This passage reports EC50 results from patent US20200407433A1.

Residue numbers refer to the chain shown, from its start.

In this test the target is Primate CGRP (primate (macaque)). Nature of the test: ELISA, primate CGRP binding. (In an ELISA, binding on a coated surface is turned into a signal by an enzyme label.)
Chain of Primate CGRP (primate (macaque)) (P06881 83-119): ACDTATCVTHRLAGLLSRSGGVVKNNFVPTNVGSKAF

B1: murine mAb 24G7B10G2 (antibody, mouse IgG2a, V domains shown)
VH: EVQLLQSGPELMKPGTSVKISCKASGYTFTDYYMNWVKQSHGKSLEWIGDVNPNNGDTTYNQKFKGKATLTIDKSSSTAYMELRSLTSEDSAVYYCASITIVPLYFDFWGQGTTLAVSS
VL: DIVMTQSQKFMSTSVGDRVSVTCKASQNVGINVAWYQQKPGQSPKALLYSASYRYSGVPDRFTGSGSGTDFTLTISNVKSGDLAEYFCQQYNTYPYTFGGGTKLEIK
The EC50 is the concentration giving half of the maximal effect. A lower EC50 goes with higher potency in that assay. With B1, the EC50 came to 0.072 nM.

B2: murine mAb 30B8G9B11 (antibody, mouse IgG2a, V domains shown)
VH: B1 VH with L5Q, M12V, T16A, D57G, T59H, I72V, L104V, A116T
VL: B1 VL with I31P, Q37R, L48I, K79Q, G81E, E85D, F87I, T93Y
In turn, B2 registered an EC50 of 0.07 nM.

B3: murine mAb 6G5C8C4 (antibody, mouse IgG2a, V domains shown)
VH: EVQLQQSGPELVKPGASVKISCKASGYTFTDYYMNWVKQSHGKSLEWIGDINPNNGGTTYNQKFKGKATLTVDKSSTTAYMELRSLTSEDSAVYYCAVITIVPYYFDYWGQGTTLTVSS
VL: DIVMTQSQKFMSTSVGDRVSVTCKASQNVGSNVAWYQQKPGQSPKALIYSASFRYSRVPDRFSGSGSGTDFTLTISNVQSEDLADYFCQQYNSYPYTFGAGTKLELK
B3 gave an EC50 of 0.101 nM.
